Tests used:
[1] = biological target: HP-NAPE97GY101H (Helicobacter pylori strain 26695) (UniProt P43313); assay: western blot of E. coli lysates, normalised by Ponceau S to wild-type HP-NAP
[2] = biological target: HP-NAPY101H (Helicobacter pylori strain 26695) (UniProt P43313); assay: as above
[3] = biological target: Helicobacter pylori neutrophil-activating protein (HP-NAP) of H. pylori 26695 (Helicobacter pylori strain 26695) (UniProt P43313); assay: cell-based or functional assay
[4] = biological target: HP-NAPE97GY101H (Helicobacter pylori strain 26695) (UniProt P43313); assay: recombinant HP-NAP-based ELISA, antibody X at 600 ng/ml
[5] = biological target: HP-NAPY101H (Helicobacter pylori strain 26695) (UniProt P43313); assay: as above

antibody X, commercial IgG/M2 monoclonal antibody (Sigma, F-3165)
western-blot signal intensity compared to wild-type HP-NAP [1]: 9% | western-blot signal intensity compared to wild-type HP-NAP [2]: 11% | inhibition of ROS production upon two hours of HP-NAP stimulation (H2DCF-DA fluorescence) [3]: 93.2% | ELISA signal compared to wild-type HP-NAP [4]: 33% | ELISA signal compared to wild-type HP-NAP [5]: 60%
